From PMC7708047, “VEZF1–guanine quadruplex DNA interaction regulates alternative polyadenylation and detyrosinase activity of VASH1” come the findings set out here.

This data set addresses T1, VEZF1-3xFlag (Homo sapiens, UniProt Q14119 1-521).
T1 sequence: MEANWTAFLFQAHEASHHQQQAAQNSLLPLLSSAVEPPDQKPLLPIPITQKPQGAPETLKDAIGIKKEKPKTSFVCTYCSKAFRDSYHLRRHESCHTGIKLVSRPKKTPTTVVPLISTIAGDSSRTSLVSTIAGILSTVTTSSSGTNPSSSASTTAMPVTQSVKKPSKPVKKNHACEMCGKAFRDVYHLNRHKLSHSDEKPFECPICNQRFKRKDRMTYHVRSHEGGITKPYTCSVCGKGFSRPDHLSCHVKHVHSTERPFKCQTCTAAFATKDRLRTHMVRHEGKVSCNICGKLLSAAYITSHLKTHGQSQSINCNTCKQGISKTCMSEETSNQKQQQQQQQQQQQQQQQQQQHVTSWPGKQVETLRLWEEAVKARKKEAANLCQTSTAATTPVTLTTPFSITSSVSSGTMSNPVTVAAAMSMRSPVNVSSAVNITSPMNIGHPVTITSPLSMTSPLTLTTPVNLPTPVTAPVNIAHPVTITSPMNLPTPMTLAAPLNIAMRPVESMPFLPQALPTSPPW
Kind of data set: EMSA; 100 mM K+, 10 uM Zn2+; EMSA: 25 nM DNA, 10 mM Tris-HCl pH 7.5, 100 mM KCl, 10 uM ZnCl2, 1 mM DTT, 3% glycerol, on ice 30 min; 6% PAGE in TBE pH 8.3, 4 C. Conditions: protein: recombinant, tags: C-terminal 3xFlag, label: 5'-TAMRA. (In general: A gel shift assay detects complexes by their altered migration in electrophoresis.)

Consider TGAGGGTGAGGAGTGTGGGGA (ssDNA) [MYC M4], for which the binding result (single strand) is “no binding”. Regarding AAAGGGTTAGTGTTAGTGTTAGGGAA (ssDNA) [hTEL M4], for the setting “single strand”, the Kd (commonly the free concentration of one partner at which half of the binding sites on the other are occupied at equilibrium, for simple one-to-one binding) amounted to 1640 ± 70 nM. On to AAAGGGTTAGGGTTAGGGTTAGGGAA (structured_DNA) [hTEL G4], for which the Kd (G4) worked out at 780 ± 40 nM. GTGTGAGGTGGAAGTGAAAGAAGTGAAGAGCAGTGAGAGTGTGCC (ssDNA) [R1M4-1]: the binding result (single strand) is reported as “no binding”.

B1: R1M4-2 (ssDNA)
DNA: TCGTGAGTGTGGAGTGAGGTGCTGTGCCTGAGCTGAGAGCAGCTTAGTTTGCA
Take B1: the binding result (single strand) is reported as “no binding”. With TGAGGGTGGGGAGGGTGGGGA (structured_DNA) [MYC G4], the Kd (G4) came out at 2060 ± 120 nM.
